Assay: label from the status in PepcDB records

Sequence	protein production
MKIMGFYSQVILPRLLDWSLSDPTLATYRQELLTDVTGEVLEIGFGTGLNLAYYPSHIHKITTVDVNPGMNTIAQKRIDDSGIKVQQLLLSGENLPMADNTFDSVVSTWTLCSIANVEQALQEVYRVLKPGGKFFFLEHGLSNKPNVQVWQNRLTPIQKVLADGCHLNRNIQQLVEQSFDHVELKRFTPENFPDLMAHFYKGCATKKSILEHHHHHH	not failed
MSEWMKKSPLEWEDYVYKEVRVIACEKEYKGWLLTTDPVSANIVLVNFLEDGRLSVTGIMGHSVQTVETISEGDHRVREKLMHVFASGDCKGYSPEDLEEKRTSLKKWLEKNHIPVTEQGDAQRTLCVAGVLTIDPPYAPENCSSSNEIILSRIQDLIQGHLSASQ	failed
MKKLFPLLLLILSILVGCGKKEKHSVTEIAREKKRITALLYEKELPTDSVKQLYENSVQNKNLVGQMLFAIEVGKRMRNMSQYTDAMLYHQKGLNAALNLRDTIVAAQAWNHLGTDSRRIGALAEASDYHYKALSLIESFSGNQNRPAIKARSAALNGIGNINLELGYHDEAEKNFLKALQGEKELDSPLGQAINYANLGRIYRQRKEYDKARTYFLLSLEQNNMAENLMGIGLCSINLGEVDEEKGDYQKALQEYATAYKLMEQLSDRWHWLNSCIPMARINLKQGNERLYQHFISLAEGTAKEINSTSHLIEIYNLQYENLERKKEYKQALEAFCLSKTLSDSMSIAHKVSSIQETRFNYERNKSQKELEEIQQVSKAKQEKSKFILLSTLFALFISILLISVLTYAYRQGKKHNKLIKETDKLRSGFFTGITHEFRTPITVIQGLNEKMSSSPDLQASDRTELHKIIDRQSSHMLNLVNQLLDICKIRSGVSTPEWRNGDIVSFVQILIDSFAPYAQAQDITLELQPESKPIVVDFVPSYLQKIISNLLSNAIKYSLAGGRVVISLAKTKNEKNLIIRVADNGIGIDKTDQAHIFDIFYRGQSATEKHGSGVGLSFTNILVENLRGTIKVESQPGKGSAFTISIPTQNQSSSAEILPWLPSSDDIVMPVHIAPDDSPTSPMVAALNHRFEDERPTILLVEDNKDINLLVKLLLCDRYNVLSAANGKEGIALATEHIPDIIITDIMMPIMDGIEMTIRMKQSPLLCHIPIVALTAKSTEQDRLEGIKSGVVSYLCKPFSPEELLMRIEQLLKDRELLKKFYMQKLMLDRKPEEEPQPIDDSSMQFLLAAKDAVSGGIKQNPDFSAQDLAEKMCMSPSQLNRKLTSVVGCSTIGYIQQIKIKLACKLLADESKNISDISIEAGFSDPAYFSRTFKRYMNCSPSQYRQKLLAMPGSDKETV	failed
MPVAISLPTSSTSHFFPRRRGHANHRYQRFSGAQSSTEDPYIRKNQTGVIIIGAGLAGLAAANQLTSKRIPFLLLEASDGVGGRVRTDIVDGFFLDRGFQIFITAYPEAKKLLDYEALDLQRFYAGAKVFYGGKFHTVADPLRHFWDSVASLANPIGSVVDKGLIALTRARVLIKSDEEILTAADEVPTIDLLRKIGFSETILDRFFRPFFGGIFFDRDLETTSKLFDFVFRCLALGENTLPAMGIGEISNQLAAKLPAKSVLLNTRVASIEYPNGSGSDPPSVRLQDGSVMKAELGVIIAVEQPEVNKLLDGIRDPVITKPARSTICLYFTAEPNQIPVQDPVLFLNGSNSGIINNMFFATNVARTYAPPGKALVSVSLIGLFEDRTDDDLAAEVLRELSGWFGESPVMSWKHLKTYRIQFAQPNQCPPTDLVKSPRVGSGLYLSGDYMTSATFDGALVSGRRAVEVLLRETGLIK	failed
GPGSMYRSRPEPVQGHLFTYYKDPYCKIPVFMMNMDARRCVLWVGGQTESLLSFDYFTNLAEELQGDWAFVQVEVPSGKIGSGPQDHAHDAEDVDDLIGILLRDHCMNEVALFATSTGTQLVFELLENSAHKSSITRVILHGVVCDPENPLFTPEGCAARKEHVEKLMAEGRGEDSLAMLKHYDIPITPARLAGGGFPTLQEAVWNPCIRKEFDVLRRSVGVIKVPLLLMLAHNVQYKPSDEEVGTVLEGVRDHTGCNRVTVSYFNDTCDELRRVLKAAESEHVAAILQFLADEDEFRTETEKNNRIKAAEDEKKRKSVLQVSSFAQAASSVKAS	not failed
MEASMERFDNAPETALAWHRQGLGAALATVVETWGSAPRRVGAQLVIGGDGRIEGSVSGGCVEGAVIVEALEALEEGQARLLEFGVSDEDAFAVGLACGGTIRVLVEPVGQVLSEVMLAELVAARASRQALAYVVDTARGTRALVRDAYPERMRMDRSGFDEDGRTFVAVHNPPLRLIVVGAVHIAQALVPMARIAGYDPVVIDPREAFASDARFPGETILHDWPDEAVAKLGLDARTALVLLTHDPKLDDPALEAALAADVFYIGALGSTRTHAKRVARMQEAGFTEAQIGRIHGPVGLDIGAAGPAEIAVAILAQMTAVLRGRA	not failed
MKSEKETIYDYAAELKLLSFKEELECTLSLAAEENWNHLQFLTELLGKESARRRECRRRSRIRSAGFPQMKYLHELVMEDMPKEAQVILPELETLDFIRQGRNLVLYGNPGTGKTHIATALGIKACQQDFTVLFTSVPVLLTQIREAKSAKTLRTLQLRFEKYDLVICDEFGYVSCDKEGGELLFNHLSLRAGKKATIITTNLAFNRWNEIIKDKVLVAAMVDRLTHKAYLVNMTGLSYRLKETQKMRQDKLEHHHHHH	failed
MKWVTYRSDHGERTGVLSGDAIYAMPPDVSLLDLVGRGADGLRTAGERAVRSPAAVVALDEVTLAAPIPRPPSIRDSLCFLDHMRNCQEAMGGGRVLMDTWYRIPAFYFACPSTVLGPYDDAPTAPGSAWQDFELEIAAVIGTSGKDLTVEQAERSIIGYTIFNDWSARDLQMLEGQLRIGQAKGKDSGITLGPYLVTPDELEPYCRGGKLSLRVIALVNGTVIGSGSTAQMDWSFGEVIAYASRGVTLTPGDVFGSGTVPTCTLVEHLRPPESFPGWLHDGDVVTLQVEGLGETRQTVRTSGTPFPLALRPNPDAEPDRRGVNPAPTRVPFTRGLHEVADRVWAWTLPDGGYGFSNAGLVAGDGASLLVDTLFDLALTREMLAAMKPVTERAPITDALITHSNGDHTHGTQLLDRSVRIIAAKGTSEEIEHGPAPEMLARIQTADLGPVATRYLRDRFGHFDFSGIKLRNADLTFDRDLAIELGGRRVDLLNLGPAHTTADSVVHVADAGVLFAGDLLFIGCTPIVWAGPIANWVAACDAMIALDAPTVVPGHGPVTGPDGIRAVRGYLAHIAEQAEAAYRKGLSLPEAVETIDLGEYASWLDSERVVVNVYQRYRELDPDTPRQDLLALLVMQAEWAARHCT	failed
MSLFRSRPNALSQRSVIASSSELASLAGRDILKRGGNIFDAALAVSAMLCVTQNNLCGLGGDLFALIRDENGQIMDLNGSGQASRAVSIDYYESMGLTKIPERGPYAAITVPGIAGSWDEIFRKFATMDIADILEPAIRTASAGFPITQNYSDSIARSAPVIGQYRGWSSIFMPNGSVPVAGEILKQPDLAESFRLMSEEGFRSFYDGSLADIIIAGLEGTGSPLSDRDLRVYRPLIGKPVFTDLDEFRIYETSPNSQGITVIEWIRGMESHGYDSRTMWEAKIEDIFETMEEAYDKRRKITDPSYMNIAQHDSANGKKDGLPKRDHNDIGDTTYFSISDSEGRSVSIIQSNYMGFGSGIVPKGTGFVLQNRGSYFTLQRDHPNALMPGKRTFHTLAACMVEKEHDLYASLGSMGGDIQPQVQMQILMEILKDNTDPQAILDKPRWTEPYTIYEAPGAVYVESEELYRNVSKQISGRKVVLRDVSQEFGTAQITTLIRGDVVVGAADPRGDGIAIPYSEGHHHHHH	not failed
RLRQPMLRTGDQWQPIEWQAAFDLVAERLYAIQQQHGQNAVAVYQGNPSVHNYGLMTHSNYFLGLLKTRNRFSATSVDQLPHHLTSFLMYGHGMLLPIPDIDHTDFMLILGGNPLASNGSIMTVPDVEKRLKAIQQRGGKLVVVDPRRSETAAIADQHVFVRPGGDAALLFGLLNTLFEEGLTRESHLPVDGLDHVRHSIAGFSAEAMSPRCGIAAVQIRQLARDFAGADTALCYGRMGVSTQAFGTLCHWLAQLINLVTGNLDRVGGTLCTEPAVDLVSSTSGGHFNVWQSRVSGLPEYGGELPVSALAEEMLVEGQGQVRALVTVAGNPVLSTPNGRQLDQALEGLEFMLSIDLYINETTRHADLILPSTSALENDHYDTTFNTLAVRNVTRFNRAIFDKPEGALHDWEIFVGLAASFAAKAQRELKPTVPPAQMIDRVLRAGRYGAASPHNLSLETLASHPHGMDLGALKPNLTDRLKTANGRIQAAP	failed
MNNISSNIKKVLFIFLVIFFVTISYITYFELIVSPKIVNNTDNKRLWAKRNEVLRGTIYDRNKKALTKSERVNTLTQKREYTGGAMFSHVLGYVNPQYGLTGLEAKYDQYLMGADDQPINQYLMELIKNKGKVSPEDKRGEDVVTTLDYNIQQQAYNLLGDNKGSVVVLNPKTGEILAMVSKPSYDPNDDALKASWAALNSNPDRPLLNRAVSGLYPPGSTFKTVTAISALENISGIQNETFNDPGQLVFNSTESLRDFGGESFGDIGFKHAYVVSSNVVFGKIGLQLGNNNLRQTAESFYFNKNIPCDGIVIDKSKFPTLKSYEKGNMAQSAIGQASVLATPIQMALVASTVANDGVMMKPHVVNEILSPNGDKIKSIEPESIGNIVSKENAATMKDFMRNVVEDGTGVNAAVEGIQVAGKTGTADHKVNGKDATPHSWFIGFAPYDNPQVAIAVIVEDGGQGGKAAAGIASKVIQTALQK	failed
MDLNRMGKDEYYVQITVDGKEVHSKADNGQKYKDYEYKLTGFDKDGKEKELEFTAQKNLRKEAFLRVYHSDKKGVSAWEEVKKDELPAKVKEKLGVKLEHHHHHH	not failed
AIADSKSHGWLIGANGTILETHDGGEHWEPRTFDFLRMDEEINYRFESISCYGNEGWIVGKPPILLHTQNGGKDWERIPLSSKLPGEPVLITALGPNRAELATTAGAIYTTDNGGKNWKALVKETIDATLNRTTSSGVTGASYYTGTVISITRDCNGYYLAISSRGNFYVTWHPGQEYWTPHPRDSSRRIQSMGFVQNDIHKGLWMANNGGFLGFSPPNPSLDTVSSIPFQRVDIRTGGYGILDVAFHQQKRNEVWASVGSGILYRSFDGGKHWEKDPWLDHLGSVLYRIKFVENSGFILGAKGTLLRYNG	not failed
MFPGVFEHLLYQYTSAILSVGFLIFNGLFAVIYNPKKVVGIKGDPDYTFTDITVLIPVYNEVEDIFRKVIKSVSSMGLKFVVVGDGVDQPYRAITEQNGGIFIRLEERRGKRFALSEGMRYIDTRLVLLLDSDTFIDKRSLERMLSYMAEDVGGVSPSIRVWNNGKISYYYANFYEIMSEIVNRATSYFGRTIILSGQCVLYKTSAIRNYVMSNDFTSSKIFNISLKISDDRDLTEYIIERGYKAIKAIDAIAYTKPPENLSQFVKQVVRWTRANYLFFLRSLRDGSLSLRGNLYVFDIIYMNFLPILVIFSLIPLQYPRFDIFNTLSASITSLERLDIFQLILGIPIRAHLPPFDFVLVFILPRVLSIIGGVTFLLVMIKIMEKERGKTLMYGVIALIVQSLASFYSIASMWKQSWSSREKNRKSKK	failed
SDSTAGTDAVAVGGTFQFHSPDGKMEIFYDEADRQQLPDIGGDSLMEEGTQINLSDFENQVVILNAWGQWCAPCRSESDDLQIIHEELQAAGNGDTPGGTVLGINVRDYSRDIAQDFVTDNGLDYPSIYDPPFMTAASLGGVPASVIPTTIVLDKQHRPAAVFLREVTSKDVLDVALPLVDEA	not failed
MRVYDMHVHLHEYSDREVEEILDADKSLVVVAVSDDLESAWRTLDLWHTFGGRVVPCLGFHPWNVREGRVWEAWEVLRLAYRYGVPCLGEVGLDRRFVDEYTWRVQNEVFDAFVQLAEDMGVMLNIHAPDAWKHVAHRIGWTSRARFMYHWYTGPATLPRALPEGRVWFSINSAIRVQEKSVRVAREIPLRSLVVESDGPYNYRGLRLSPLMVRETVKLVAEARGEDPGRLMEAISLNSERLLGLL	failed

— a protein production outcome set (Wang et al. 2014)
